Results on two molecules are retold here after publication PMC3741918 (FEBS Open Bio, 2013).

In experiment [1] the target is human frataxin variant hFXN56–210 (human) (UniProt Q16595). Nature of the experiment: SEC.
For experiment [2], the target named is T1, human frataxin variant hFXN56–210 (human, UniProt Q16595 56-210).
T1 sequence (looked up): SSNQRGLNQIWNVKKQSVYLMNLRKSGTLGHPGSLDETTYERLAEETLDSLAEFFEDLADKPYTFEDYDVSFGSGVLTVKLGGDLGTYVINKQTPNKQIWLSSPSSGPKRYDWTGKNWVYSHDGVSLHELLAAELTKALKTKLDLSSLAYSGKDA
Nature of the experiment: aggregation assay.

On to “human frataxin variant hFXN56–210 (from UniProt Q16595 56-210) (domain or fragment)”, for which the percent of the protein in the oligomeric state in experiment [1] came to 60%.

B1: peptide hFXN56–81 (peptide)
peptide: SSNQRGLNQIWNVKKQSVYLMNLRKS
Take B1: the binding result in experiment [2] is “binds”.
